Results: PMC4661386

Target: CUB_C (CUB module and C-terminal peptide from human TSG-6), wild type (human) (UniProt P98066)
Experiment: SPR; CUB_C (WT or E183S) amine-coupled to a CM5 chip (~1000 RU); rHC1 (WT or D298A) injected at 30 ul/min in 20 mM HEPES, 150 mM NaCl, 0.05% Tween 20, pH 7.4 (HBS-T), no EDTA (as purified CUB_C contains Ca2+); multicycle kinetics, 1:1 Langmuir model

Kd: 2.1 nM
B1: Recombinant human heavy chain 1 (rHC1) of inter-alpha-inhibitor, wild type (natural protein)
chain: SKSSEKRQAVDTAVDGVFIRSLKVNCKVTSRFAHYVVTSQVVNTANEAREVAFDLEIPKTAFISDFAVTADGNAFIGDIKDKVTAWKQYRKAAISGENAGLVRASGRTMEQFTIHLTVNPQSKVTFQLTYEEVLKRNHMQYEIVIKVKPKQLVHHFEIDVDIFEPQGISKLDAQASFLPKELAAQTIKKSFSGKKGHVLFRPTVSQQQSCPTCSTSLLNGHFKVTYDVSRDKICDLLVANNHFAHFFAPQNLTNMNKNVVFVIDISGSMRGQKVKQTKEALLKILGDMQPGDYFDLVLFGTRVQSWKGSLVQASEANLQAAQDFVRGFSLDEATNLNGGLLRGIEILNQVQESLPELSNHASILIMLTDGDPTEGVTDRSQILKNVRNAIRGRFPLYNLGFGHNVDFNFLEVMSMENNGRAQRIYEDHDATQQLQGFYSQVAKPLLVDVDLQYPQDAVLALTQNHHKQYYEGSEIVVAGRIADNKQSSFKADVQAHGEGQEFSITCLVDEEEMKKLLRERGHMLENHVERLWAYLTIQELLAKRMKVDREERANLSSQALQMSLDYGFVTPLTSMSIRGMADQDGLKPTIDKPSEDSPPLEMLGPRRTFVLSALQPSPTHSSSNTQRLPDRVTGVDTD
